Laboratory results: publication PMC6139311

Columns and labels:
Lrp (Escherichia coli) = assay: EMSA
[1] = test system: Lrp;MBP-RctB (Escherichia coli;Vibrio cholerae); assay: EMSA; conditions: scale: fold higher RctB affinity than to naked crtS

With “crtS (153 bp with ~100 bp lambda flanks)” the Kd (Lrp (Escherichia coli)) was 5.5 nM and the binding signal [1] was 10.
